Data published in patent publication US20170266311A1 (published 2017).
Values belong to the binder of their own block, whether it stands above or below them.

Key:
[1] = target: T1, human NaPi2b (sodium-dependent phosphate transport protein 2B, SLC34A2) (human, UniProt O95436 1-690); experiment: flow cytometry on OVCAR3 cells, Alexa Fluor 647 goat anti-human IgG detection, one site specific binding fit
T1 construct: also called NaPiIIb; Npt2
T1 sequence: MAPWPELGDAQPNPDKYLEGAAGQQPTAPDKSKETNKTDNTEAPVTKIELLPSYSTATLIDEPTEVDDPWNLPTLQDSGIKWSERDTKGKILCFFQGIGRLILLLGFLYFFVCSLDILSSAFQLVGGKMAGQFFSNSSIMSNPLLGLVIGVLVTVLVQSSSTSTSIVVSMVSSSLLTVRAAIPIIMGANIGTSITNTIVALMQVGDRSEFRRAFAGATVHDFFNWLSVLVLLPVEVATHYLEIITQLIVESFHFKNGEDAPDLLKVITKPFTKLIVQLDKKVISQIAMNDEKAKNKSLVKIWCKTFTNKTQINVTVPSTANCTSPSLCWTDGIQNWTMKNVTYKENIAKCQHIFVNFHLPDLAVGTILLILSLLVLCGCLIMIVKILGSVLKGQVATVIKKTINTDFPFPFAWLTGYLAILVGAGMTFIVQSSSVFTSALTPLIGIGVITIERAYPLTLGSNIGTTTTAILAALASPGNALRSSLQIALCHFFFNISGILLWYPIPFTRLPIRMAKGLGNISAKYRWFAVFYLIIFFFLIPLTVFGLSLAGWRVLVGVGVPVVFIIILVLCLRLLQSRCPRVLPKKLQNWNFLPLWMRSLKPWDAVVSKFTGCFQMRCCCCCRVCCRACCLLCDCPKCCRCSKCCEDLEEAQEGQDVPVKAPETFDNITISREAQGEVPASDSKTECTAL
Method: (§1) TOV-21G or OVCAR3 cells were grown overnight to approximately 90% confluent cultures in media, then were released from the plate surface by treatment with Trypsin-EDTA (Gibco-Thermo Fisher Scientific, USA). The detached cells were washed once with ice cold media containing 6% goat serum and resuspended in the same media. 50,000 cells were aliquoted per well of a V-bottom, 96-well plate and incubated with a range of test articles concentrations (0.23-500 nM) in 100 μl Media (1:1 mixture MCDB105 (1.5 g/L sodium bicarbonate) and Medium 199 (2.2 g/L sodium bicarbonate plus 15% FBS)) with 6% goat serum on ice for 3 hours. The cells were then washed once with ice cold PBS and resuspended in 150 μl Media with 2% goat serum and 6 μg/ml of a secondary fluorescently labeled antibody, Alexa Fluor® 647-labelled goat anti-human IgG (Life Technologies, Cat# A-21445) for 1 hour on ice. The cells were washed once with ice cold PBS and suspended in 150 μl of ice cold PBS with 1% paraformaldehyde. The amount of fluorescence bound per cell was determined by running 5000 cells for each treatment on a MACSQuant flow cytometer (Miltenyi Biotec, Bergisch Gladbach, Germany). The median fluorescence value for each treatment was graphed, and the binding constant, KD was calculated for each test article with GraphPad Prism software by non-linear regression using the one site specific binding model.

[2] = target: T1, human NaPi2b (sodium-dependent …); experiment: flow cytometry on TOV-21G cells, Alexa Fluor 647 goat anti-human IgG detection, one site specific binding fit
Method: as §1

Kd [1]: 6.59 nM
Kd [2]: 2.46 nM
B1: XMT 1535 antibody (antibody, human IgG1, kappa, V domains shown)
VH: QVQLVQSGAEVVKPGASVKMSCKASGYTFTGYNIHWVKQAPGQGLEWIGAIYPGNGDTSYKQKFRGRATLTADTSTSTVYMELSSLRSEDSAVYYCARGETARATFAYWGQGTLVTVSS
VL: DIQMTQSPSSLSASVGDRVTITCSASQDIGNFLNWYQQKPGKTVKVLIYYTSSLYSGVPSRFSGSGSGTDYTLTISSLQPEDFATYYCQQYSKLPLTFGQGTKLELKR
notes: Full IgG1

Kd [1]: 3.84 nM
Kd [2]: 3.97 nM
B2: Example 1C, XMT 1535-(EG2-MI-(10 kDa PHF-BA-(AF-HPA-Ala))) (antibody, human IgG1, kappa, V domains shown)
VH: B1 VH
VL: B1 VL
modifications: EG2-MI-(10 kDa PHF-BA-(AF-HPA-Ala)) polymer-drug scaffolds attached by maleimide to cysteines of the partially reduced antibody; positions and chain not stated; DAR about 11:1 to about 15:1
